Assay results: article PMC8304084, “A Concerted Action of UBA5 C-Terminal Unstructured Regions Is Important for Transfer of Activated UFM1 to UFC1” (International Journal of Molecular Sciences, 2021)

Assays:
Test in all cases: ITC; VP-ITC, 25 °C; UBA5 peptides (~400 µM) titrated into 20–25 µM binding partner; 25 mM HEPES pH 7.5, 100 mM NaCl; one-site model; a single profile for each interaction
Details in all cases: both partners purified
[1] = biological target: LC3B, residues 5–120 (UniProt Q9GZQ8 5-120)
[2] = biological target: T1, GABARAPL2, residues 3–116 (UniProt P60520 3-116)
T1 construct: N-terminal cloning artefact left after TEV cleavage (vector pET39_Ub19); source: E. coli T7 Express, purified (His Trap IMAC, TEV cleavage, reverse IMAC, Superdex gel filtration); not shown: modified ubiquitin tag (Ub19), N-terminal, cleaved

[3] = biological target: T2, Full length UFM1, residues 2–83 (UniProt P61960 2-83)
T2 construct: N-terminal cloning artefact left after TEV cleavage (vector pET39_Ub19); UFM1 (ubiquitin fold modifier 1), residues 2–83 (processed form ending at Gly83); also called Ubiquitin fold modifier 1; source: E. coli T7 Express, purified (His Trap IMAC, TEV cleavage, reverse IMAC, Superdex gel filtration); not shown: modified ubiquitin tag (Ub19), N-terminal, cleaved

Measured: Kd

T1 sequence (P60520 other isoform, or with tags, fused parts or gaps): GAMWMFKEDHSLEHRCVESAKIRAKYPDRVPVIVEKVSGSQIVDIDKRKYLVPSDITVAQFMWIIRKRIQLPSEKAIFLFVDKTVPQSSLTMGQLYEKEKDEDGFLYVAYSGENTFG
T2 sequence (P61960 other isoform, or with tags, fused parts or gaps): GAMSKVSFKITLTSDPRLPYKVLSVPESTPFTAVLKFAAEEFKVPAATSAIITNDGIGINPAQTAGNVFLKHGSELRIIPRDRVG

B1: UBA5 C-terminal region R2, residues 359–376 (peptide)
chain: GAMGPVPDLPEGITVAYTIPK
notes: N-terminal cloning artefact left after TEV cleavage (vector pET39_Ub19); also called isolated R2 peptide; source: E. coli T7 Express, purified (His Trap IMAC, TEV cleavage, reverse IMAC, Superdex gel filtration); not shown: modified ubiquitin tag (Ub19), N-terminal, cleaved
> 100 µM: all assays above
